According to patent US20050221395A1, “Methods and products based on oligomerization of stress proteins” (priority 2002, published 2005):

Columns and labels:
[1] = % dimer by size exclusion chromatography (SEC); format: physicochemical
Description: Gp96-peptide complex was isolated from murine CT-26 tumors. Separate aliquots of each preparation were either maintained at 4° C. (untreated) or subjected to mild heat treatment to denature the complex.
HPLC size exclusion chromatography is currently being optimized and has been run under a few different formats. The column was either a TSK 3000SWXL (Toso Haus) or a Superose 6 (Amersham Pharmacia) equilibrated in 10 mM phosphate buffer, pH 7.1, with 300 mM NaCl. All experiments were run at room temperature on a Waters Alliance or HP 1100 HPLC systems at a flow rate of 0.5 mL/min. The following results for human tumor derived gp96 (reported in Table 3, below) were all analyzed on the Superose 6 column. % dimer values represent the area percent of the dimer peak relative to total peak area.

NECA ligand binding = assay: NECA ligand binding
Description: Dimer content also correlates with the ability of gp96 to bind NECA. Using the gp96-peptide complex isolated from CT-26 tumors, aliquots of each preparation were also analyzed for NECA ligand binding.

[2] = tested on: murine antigen presenting cells; assay: MCP-1 secretion by antigen presenting cells; format: cell-based
Description: (§1) Further experiments indiate that dimer content correlates with the ability of gp96 to stimulate chemokine/nitric oxide release by antigen presenting cells. Gp96 purified from the Meth-A murine fibrosarcoma tumors, subjected to both thermal and pH perturbations. This material was analyzed by SEC and NECA binding for its ability to induce murine antigen presenting cells to secrete MCP-1 and nitric oxide. […] NECA ligand binding and both MCP-1 and NO production decreased concomitantly with the loss of dimer. A similar trend was observed upon exposure of gp96 to pH 3, but not pH 7 or 9.

[3] = tested on: murine antigen presenting cells; assay: nitric oxide (NO) secretion by antigen presenting cells; format: cell-based
Description: as §1

B1: gp96: Gp96 purified from the Meth-A murine fibrosarcoma tumors, subjected to thermal and pH perturbations (FIG. 2) (protein, UniProt P08113 22-802, looked up)
Endoplasmin: DDEVDVDGTVEEDLGKSREGSRTDDEVVQREEEAIQLDGLNASQIRELREKSEKFAFQAEVNRMMKLIINSLYKNKEIFLRELISNASDALDKIRLISLTDENALAGNEELTVKIKCDKEKNLLHVTDTGVGMTREELVKNLGTIAKSGTSEFLNKMTEAQEDGQSTSELIGQFGVGFYSAFLVADKVIVTSKHNNDTQHIWESDSNEFSVIADPRGNTLGRGTTITLVLKEEASDYLELDTIKNLVRKYSQFINFPIYVWSSKTETVEEPLEEDEAAKEEKEESDDEAAVEEEEEEKKPKTKKVEKTVWDWELMNDIKPIWQRPSKEVEEDEYKAFYKSFSKESDDPMAYIHFTAEGEVTFKSILFVPTSAPRGLFDEYGSKKSDYIKLYVRRVFITDDFHDMMPKYLNFVKGVVDSDDLPLNVSRETLQQHKLLKVIRKKLVRKTLDMIKKIADEKYNDTFWKEFGTNIKLGVIEDHSNRTRLAKLLRFQSSHHSTDITSLDQYVERMKEKQDKIYFMAGSSRKEAESSPFVERLLKKGYEVIYLTEPVDEYCIQALPEFDGKRFQNVAKEGVKFDESEKTKESREATEKEFEPLLNWMKDKALKDKIEKAVVSQRLTESPCALVASQYGWSGNMERIMKAQAYQTGKDISTNYYASQKKTFEINPRHPLIRDMLRRIKEDEDDKTVMDLAVVLFETATLRSGYLLPDTKAYGDRIERMLRLSLNIDPEAQVEEEPEEEPEDTSEDAEDSEQDEGEEMDAGTEEEEEETEKESTEKDEL
modifications: Meth-A tumor derived
[1]; heated at 50° C. and 60° C., at 30 minutes (FIG. 2A)
  dimer level: Neither sample contained dimers
[1]; pH 3.0 (FIG. 2E)
  dimer levels: markedly reduced
NECA ligand binding; heated to 50° C. and 60° C., at 30 minutes (FIG. 2B)
  NECA binding ability: Neither sample of gp96 could bind NECA
NECA ligand binding; pH 3.0 (FIG. 2F)
  NECA binding ability: markedly reduced
[2]; heated to 50° C. and 60° C. for 30 minutes (FIG. 2C)
  ability to stimulate murine APC secretion of MCP-1: rapid drop
[2]; pH 3.0 (FIG. 2G)
  MCP-1 secretion by murine APCs: markedly reduced
[3]; heated to 50° C. and 60° C. for 30 minutes (FIG. 2D)
  ability to stimulate murine APC secretion of NO: rapid drop
[3]; pH 3.0 (FIG. 2H)
  NO secretion by murine APCs: markedly reduced
